B1: brain derived neurotrophic factor (protein, UniProt P23560 19-247, looked up)
Neurotrophic factor BDNF …: APMKEANIRGQGGLAYPGVRTHGTLESVNGPKAGSRGLTSLADTFEHVIEELLDEDQKVRPNEENNKDADLYTSRVMLSSQVPLEPPLLFLLEEYKNYLDAANMSMRVRRHSDPARRGELSVCDSISEWVTAADKKTAVDMSGGTVTVLEKVPVSKGQLKQYFYETKCNPMGYTKEGCRGIDKRHWNSQCRTTQSYVRALTMDSKKRIGWRFIRIDTSCVCTLTIKRGR
notes: neurotrophin; BDNF Human Protein (Geneway)

What was measured:
[1] = Clearance of radiolabelled neurotrophin-3 by whole cochlear gamma counts; type: in vivo
Protocol: In vivo studies were carried out to determine the drug payload and clearance of neurotrophin delivered in a supraparticle implanted into the ear after 4 hr, 3 day and 7 days of implantation. The objective was to determine the amount of neurotrophin remaining in the cochlea over time.
1 SP containing radiolabelled neurotrophin-3 was implanted into each cochlea. Cochleae were harvested following 4 hrs (n=5), 3 d (n=7) or 7 d (n=4). Whole cochlear gamma counts were measured to determine the clearance of neurotrophin-3 over time. After 1 week of implantation each SP contained ˜2 ug of neurotrophin-3 (˜40%) of initial loaded amount.
Further experiments (n=2) were carried out to examine clearance of neurotrophin-3 following round window delivery. 3 days after implantation—whole cochlear measurements were again used to determine the clearance of neurotrophin-3 from the round window membrane.

[2] = BDNF perilymph concentration by ELISA after SP implantation; type: in vivo; conditions: 2 electrosprayed SPs loaded with BDNF, n=2
Protocol: Next, 2 SPs produced by electrospraying were loaded with BDNF and placed inside the cochlea. Serial perilymph samples (1 ul samples) were obtained from the apex of the cochlea at three days and one week post implantation (sampling techniques described in Plontke et al. (2007) Laryngoscope. 117:1191-1198) and samples were analysed using an ELISA.

[3] = after 1 week of implantation, 1 SP intracochlear

Row | Molecule | neurotrophin-3 remaining ([1]; 3 days after implantation, round window delivery) | neurotrophin-3 remaining ([1]; 3 days, intracochlear delivery) | amount of neurotrophin-3 remaining per SP [1, 3] | neurotrophin-3 remaining (% of initial loaded amount) [1, 3] | peak BDNF perilymph concentration inside the cochlea ([2]; after 3 days) | peak BDNF perilymph concentration inside the cochlea ([2]; after 7 days)
1 | neurotrophin-3 | 47.4% | 56% | ~2 µg | ~40% | – | –
2 | B1 | – | – | – | – | 1707 ng/mL | 775 ng/mL

— US12048733B2, “Method of treatment” (THE BIONICS INSTITUTE OF AUSTRALIA, priority 2017, dated 2024)
